Results on 1 molecule are retold here after patent US9872921B2, “DE-N-acetyl sialic acid antigens, antibodies thereto, and methods of use in cancer therapy” (priority 2004, dated 2018).

A short description of assay [1]: HPTLC / Western blot reactivity with gangliosides extracted from SK-MEL-28 cells grown with N-trichloroacetyl mannosamine. The format is binding, human. The following applies: mAbs 5 μg/ml; lanes 2 and 5. The method, then:
SK-Mel-28 cells were grown on square 245 mm×245 mm bioassay dish (Corning) until near confluent. Growth medium (RPMI supplemented with 5 mM glutamine, 1 mM sodium pyruvate, 0.1 mM non-essential amino acids, 10% fetal bovine serum, and antibiotics) was replaced with growth medium containing trichloroacetyl mannosamine (5 mM) for 24 hours, after which cells were washed three times with PBS and lysed by hypotonic shock in distilled water (1 hour at 4° C.). This was followed by 3 cycles of freeze/thawing using ethanol on dry ice/37° C. water bath. The crude membrane fraction was pelleted by centrifugation at 4500 g for 20 minutes at 4° C. The pellet was lyophilized and the lipids extracted by stepwise washing with methanol/chloroform (1:2, 1:1, 2:1 by volume) for 30 minutes (Geilen et al 1992, Arch. Biochem. Biophys. 296, 108-114). The organic phase was dried under a steady stream of oxygen-free nitrogen gas and resuspended in 200 μl of chloroform/methanol/0.02% CaCl2 (50:40:10).
Lipids in the extract and in chemically de-N-acylated GD3 were analyzed by separation on high performance thin layer chromatography (HPTLC) and Western blot. […]
A general note: A western blot detects proteins with antibodies after separation by electrophoresis.

Assay [2] relates to CHP-134 neuroblastoma cells. Nature of the assay: Fluorescence / confocal microscopy binding to cells. The format is cell-based, human. The following applies: without Triton. The protocol:
(§1) After an overnight incubation cells were gently washed with PBS buffer and fixed with ice-cold 1% (v/v) formaldehyde. After 20 minutes cells were washed with PBS before blocking non-specific binding with a solution of 3% goat serum for 1 hour. To observe the presence of SEAM 3-reactive antigen that is present inside the cells, the cells were treated Triton X-100 0.5% w/v in 3% goat serum for 1 hour. The primary antibodies were added and incubated for 2 hours or overnight at 4° C. Cells were gently washed by a series (at least twice) with ice-cold PBS before isotype-specific secondary antibody (produced in goat) conjugated with either Alexa Fluor 488 (immunofluorescence and confocal), Alexa Fluor 546 (confocal) Alexa Fluor 594 (immunofluorescence), Alexa Fluor 633 (confocal) was applied for at least 1 hour at 4° C. in the dark (all secondary antibodies conjugated to fluorophores were obtained from Invitrogen, Carlsbad, Calif.). After another series of gentle washes, a hardening mounting medium containing DAPI was applied.
(§2) Confocal images were obtained using a Zeiss Meta510 CLSM at the Biological Imaging Facility, University of California, Berkeley, Calif. and were analyzed using ImageJ Software (NIH). Control antibodies and secondary antibodies applied alone were routinely used to assess background fluorescence.

Assay [3] concerns SK-MEL-28 melanoma cells. The assay is described as above. The format is cell-based, human. As to conditions: without Triton. The protocol: as §1, §2
For assay [4], the system named is Jurkat T-cell leukemia cells. Description: Fluorescence microscopy binding to cells. The following applies: without Triton. The format is cell-based, human. The method, then: as §1, §2
The subject of assay [5] is SK-MEL 28 cells. Nature of the assay: Flow cytometry double labeling of SEAM 3 binding and Ki-67 antigen. Type of assay: cell-based, human. The method, then:
Cells were processed by the same procedures used to measure SEAM 3 binding in the absence of Triton. After unbound SEAM 3 had been washed away, cells were treated with 3% (v/v) goat serum containing 0.5% Triton to allow entry of an anti-Ki-67 antibody. After 1 h at 4° C., an anti-Ki-67 was added and incubated on-ice for 2 hours. Cells were then collected by centrifugation, washed twice with PBS, and two fluorescently labeled goat anti-mouse secondary antibodies were added, anti IgG2b-Alexa Flour 594 (Invitrogen); anti-IgM-Alexa Flour 488 (Invitrogen). After extensive washing, cells were analyzed on a Guava EasyCyte flow cytometer.
A general note: A flow cytometer gives signals particle by particle.

B1: SEAM 3: murine anti-N-Pr NmB polysaccharide monoclonal antibody (IgG2b), ATCC Deposit No. HB-12170 (antibody, V domains shown)
VH: EVKLQESGGGLVQPGDSLSLSCAASGFTFTPYYMGWVRQPPGKALEWLGYIRNKANGYTTEYSASVKGRFTISRDNSQSILYLQMNALRAEDSATYYCARYARGTVDSWGQGTTLTVS
VL: DIVMTQSPLTLSVTIGQPASISCKSSQSLLHSNGKTYLNWLLQRPGQSPKLLIYLVSKLESGVPDRFSGSGSGTDFTLKISRVEAEDLGLYYCLQIIHFPHTFGAGTKLELKRA
modifications: mouse
Regarding B1, in assay [1], the “reactivity with SK-MEL-28 lipid extract treated with NaBH4 (protecting group removed)” value is recorded as “reacts with a different slower moving de-N-acetyl ganglioside derivative”. Moreover, the “binding to cell surface by microscopy” value in assay [2], in assay [3] and in assay [4] was “fluorescence is uniform over the cell surface” throughout. For the same molecule, in assay [5] (cells in exponential growth phase, flow cytometry and fluorescence microscopy), the “cells expressing SEAM 3-reactive antigen on their surface” value is recorded as “approximately 20%”. Besides, the “cells expressing both Ki-67 and SEAM 3-reactive antigen on their surface” value in assay [5] (double labeling) is “approximately 11%”. Further, the “cells that only express SEAM 3-reactive antigen” value in assay [5] (double labeling) was 13%.
